To fix the notation:
B1: TcEccC(cyto,R543A) (domain or fragment, Thermomonospora curvata, UniProt D1A4G7 199-1315, looked up)
chain: VPDLPVAISLRSFARILPDGDPKAVYGMVRALIMQLAAFHSPDDVRITVCASRERMPQWQWMKWLPHSLHPTEYDAAGQVRLLTHSLVELESMLGPEIKDRGMFGASRAPAEPFHLVIVDGGQASYDSQIASDGIDGVCVIDLTGSVAETNEATMLRLRVTPERVYVVKRDRAGKEVLSSVGRPDQASIAEAEALARQLAPFRTSAADEPEEDVLSANMTLTSLLHIDNPYNLDPAVLWRPRPQRNRLRVPIGLDADGRPLELDIKESAQGGMGPHGLCIGATGSGKSELLRTLVLALAMTHSPEVLNFVLVDFKGGATFLGMEGLRHVSAIITNLEEELPLVDAMYDALHGEMVRRQEHLRHSGNYASLRDYEKARMEGAPLPPMPTLFIVLDEFSELLSAKPDFAELFVMIGRLGRSLGVHLLLASQRLEEGKLRGLDTHLSYRIGLRTFSAMESRVVLGVPDAYELPPSPGNGYLKFATEPLVRFKAAYVSGPVDEEPQTRSEGPQIVRQVLPYLTDYIRPQVVEQPQPEQRAEENKSSESLFDVVVRQLAGHGPEPHQIWLPPLDVPPTLDELLPPLSPSAAHGYTADGWEWRGRLHAVVGLVDRPFDQRRDPYWLDLSGGAGHVGVAGGPQTGKSTMLRTLITSLALLHTPQEVQFYCLDFGGGTLAGLAELPHVGSVATRLDADRIRRTVAEVSALLEQREQEFTERGIDSMATYRRLRATGEYAGDGFGDVFLVVDNWLTLRQDYEALEDSITQLAARGLGYGIHVVLSSNKWSEFRTSIRDLLGTKLELRLGDPYESEVDRKKAANVPENRPGRGLTRDGYHFLTALPRIDGDTSAETLTEGIATTVKTIREAWHGPTAPPVRMLPNVLPAAQLPSAAESGTRIPIGIDEDSLSPVYLDFNTDPHFLVFGDTECGKSNLLRLITAGIIERYTPQQARLIFIDYSRSLLDVATTEHQIGYAASSTAASSLVRDIKGAMEARLPPPDLTPEQLRSRSWWTGAELFLVVDDYEMVATSDNPLRPLAELLPQARDIGLHLIIARSMGGAGRALYEPIIQRIKEMASPGLVMSGNKDEGILLGNVKPHKLPQGRGYFVERRSGTRLIQTAYRES
B2: TcEsxB, EsxB of Thermomonospora curvata (natural protein, UniProt D1A4H0 1-104, looked up)
chain: MAPQSAVDRAAMAQAAQDIEQSANAIRGMQNQLASAKDQLRSHWEGDASMAFEAVFNRFNEDFSRVLKALDGMHESLVQTRITYEAREEAAQQSVNRVQALLNG
B3: TcEsxAB heterodimer (complex, Thermomonospora curvata)
chain 1: MSDYTRANFGGLSEGEAQFSMTARALLDELTDLEGKLRAKLDRWDGDAQAAYWNYQKEWDAAAKDMQNVVAQLGVAIREAHDNYQAAERANTSIWAG
chain 2: B2 chain
B4: TcEsxA, EsxA of Thermomonospora curvata (natural protein, UniProt D1A4H1 1-97, looked up)
chain: B3 chain 1

In data set [1] the target is GbEssCb (Geobacillus thermodenitrificans, UniProt A4IKE7). Particulars: ATP bound in both ATPase domains.
GbEssCb, sequence (A4IKE7 921-1479): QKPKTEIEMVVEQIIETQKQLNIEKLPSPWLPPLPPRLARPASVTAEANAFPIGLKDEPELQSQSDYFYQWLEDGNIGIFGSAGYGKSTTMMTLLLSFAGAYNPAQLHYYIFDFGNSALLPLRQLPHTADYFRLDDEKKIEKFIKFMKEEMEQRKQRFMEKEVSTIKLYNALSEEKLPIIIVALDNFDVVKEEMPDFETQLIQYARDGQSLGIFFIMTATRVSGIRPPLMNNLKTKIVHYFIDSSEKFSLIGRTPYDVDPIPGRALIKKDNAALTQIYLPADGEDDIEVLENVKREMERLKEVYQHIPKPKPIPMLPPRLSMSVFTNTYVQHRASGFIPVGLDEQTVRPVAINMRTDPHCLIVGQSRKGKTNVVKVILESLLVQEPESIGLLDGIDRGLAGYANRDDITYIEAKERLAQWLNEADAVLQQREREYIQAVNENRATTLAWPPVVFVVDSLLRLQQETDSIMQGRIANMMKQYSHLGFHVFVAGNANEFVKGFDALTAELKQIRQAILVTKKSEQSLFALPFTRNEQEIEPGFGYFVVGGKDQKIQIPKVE
Data set [2] concerns the molecule itself. Description: cross-linking.
The target in data set [3] is B1. Description: cell-based or functional assay.
Data set [4] concerns the molecule itself.
Data set [5] addresses T1, TcEccC(cyto), cytoplasmic portion of EccC from Thermomonospora curvata (Thermomonospora curvata, UniProt D1A4G7 199-1315).
T1 sequence (looked up): B1 chain with A345R

Data set [6] deals with T1, TcEccC(cyto), cytoplasmic portion of …. Description: fluorescence polarisation. In general terms: Fluorescence polarisation rises when a labelled molecule tumbles more slowly, as on binding a larger partner.
Data set [7] has the same target. The experiment in a line: fluorescence polarisation. This is another data set of the same source.
The target of data set [8] is B2.

Where a chain is given by its changes, count along the chain named. In names and notes the source's numbering stands. Where two headings read alike, the source gives them in different places. Where no end group is shown, it is not given here. The star is where a group is joined. 5FAM = O=C1OC2(c3ccc(O)cc3Oc3cc(O)ccc32)c2ccc(C(=O)*)cc21

By stoichiometry N is commonly meant the number of molecules, sites or subunits per partner or assembly. As a reminder, the Kd is the concentration at which binding is half-saturated.

Turning to `Nc1ncnc2c1ncn2[C@@H]1O[C@H](COP(=O)(O)OP(=O)(O)OP(=O)(O)O)[C@@H](O)[C@H]1O` [ATP], the X-ray crystal structure result in data set [1] is given as “has a very similar structure, with both domains bound to ATP”.

For B1, the binding result in data set [2] is reported as “binds”.

Take B2: the “ATPase activity of TcEccC(cyto,R543A) with added TcEsxB (0-10 μM)” value in data set [3] turned out to be 5 fold. Besides, the “stoichiometry N” value in data set [4] worked out at 2. Also, the dissociation constant (Kd) in data set [5] is approximately 10 µM.

On to B3, for which the binding result in data set [6] is on record as “binds”.

As to 5FAM-VNRVQALLNG [fluorescently labeled signal sequence peptide 5-FAM-VNRVQALLNG], the binding result in data set [7] is recorded as “binds”.

As to B4, the “stoichiometry N” value in data set [8] stood at 1.
